Assay results as given in the domain aggregation screens of Martell et al. (2025).

Experiment: soluble fraction after stress (log2 fold change); higher = more stays soluble; pooled small domains, quantitative proteomics
Conditions: stress: 50 degC
Method in brief: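 Quantitative proteomics served as the high-throughput read-out for pooled custom libraries of small protein domains. Each was stressed at 50°C. Aggregation propensity is expressed as the base-two log fold change in soluble protein after stress. A higher value means a larger share of the protein remains in solution.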

Row | Sequence | soluble fraction (log2)
1 | HMGQLIGKEEAKQIALSRAGVAEGDISRYESELDTDDGKTKYEISFHVGRVEYDIEINAVTGAVEKFEMDN | 0.131
2 | HMFKITNTLNKTAEVYLTIPENKKGKGKIMISVNGAFHELEAMTENDKIQSGAVVKVVRIENDNILIVET | -1.88
3 | HMSDPDPAEQALLRQFMTRYAAYRRRGQHPAGAFRTASLEVFGQEPSGDLRDVIVDLESGLV | -0.137
4 | HMSESLLTAAGFKTIAATTPEQKRHLEWLHPDQVTAVQLTGQHYYVYPDVAKSQLFVGTPKEYQAYLALRT | -0.414
5 | HMEELPIIVAQRFLNIFRQLHIFSDERREAFNKMLLELPPEVKSIFQSLPGGTPLQEYMEDLEQKSK | -0.055
6 | HMNADLDIQNVNGNTPLWEAVMRYRGDGFFIEQLLKNGANPDIKNNYGVSPKSLARTIANYDVRRFFN | -0.137
7 | HMTPVEVNARGVHVDFSKGGILLEDVVRHLILEALRASEWKRGPAAQLLGISKETLRYRMEKYRLYPP | -2.26
8 | HMSSDEEQLATLTRLLQKQEQIIQTLGPRNPMVSLQQYANTITKVIEMAGFKDTSQFINSQIP | -0.0471
9 | HMSSLKKISIDELSPGMYVHSIVEQKGSVKIKSQGKVLKQAVVDALRKRGVKTLLIDLSKQFNPETGEP | -0.0124
10 | HMKETLSDTVSRKLEDMITTQMKAGNRLPTEMVLAEMYSVGRSTIRESLKALSSKGLIVRKKDGTFVSDRV | -0.109
11 | HMQETKDEGAQVLLNKINALVAAVQGQIITPEEAAIKLATDGDLDLDVDARVAAIEEFNKKLSEAQNN | 0.0497
12 | HMARPLLSPREQDVLALIARGFSYSEVARLQAVTVHTIRTHIRNLYAKLSVHSKTEAVFEATRMGLLP | -1.63
13 | HMIPNEKEAARWDALTAEHTAKLNALEGDALDKVGSHEDVSIKRAGVGDAAFREKILSRTHPDDLERALST | 0.0829
14 | HMTLSHAINRLRLNANMSQEQFAGLFHVSQQSVQKWESGDSVPELSKLIAIAKHFGISLDALILGN | -0.614
15 | HMEDKKQVLYELITDKSYRPLRFKELAVLLMVPKALRGELKQTLDELIKEGKITVDSSSRYRAA | 0.133
16 | HMSSDEAEYKLLLGQEGVAKSPLRPSGVVDFSGRRLDVQTLGDFIESGETVVVKQVNGHRVLVERK | 0.158
17 | HMLMRSPDFLIGWFQNLVAKRETFNDQVQAKNLIEAGKQHIQGEDFDRLLEVNRRLFSLLPQREQE | 0.215
18 | HMQTFNADDIEPIIKEILQENPKAISDFLTGNENVVKFLLGQVMKNTKGKANPKVIEELLINQLRELNN | 0.00183
19 | HMVLFDLSEREKEVLKLLADGNSYKMIASRLEITYFTVNAHLKKIYEKLQVHSASEAVSVALRNSL | -1.15
20 | HMSAPEGWMNRGDLRDNFRIQYPVTDRIIASYRESHPEWFGTYLSKTSKSLEYFHPDLVAKVREAAN | -0.101
21 | HMSMPEVLSDRELEIFRMIGTGMSTGDIAKKLNISVNTIESHRKKIKDKLGIQKGSELVKAAVQWVSTQQ | -0.262
22 | HMKTRIQDLRKELGVTQSELADAVDVTRQTIISLEGGRYKASLVLAHKLAQFFHVTIEELFIFD | -2.21
23 | HMYGSLGEYELAAVQWIYGKGKITTRELSSLIGKGLTLSSKTLRGLAAKGILEWHGNSKNDPSQFYSLP | -2.39
24 | HMTNTYEVIKNDIIFGVLPPLKKLKLLELKKKYITSVSTLREILSRLSGDGFVVSKEQKGFYVSAV | -0.00437
25 | HMSTLSIHIPDKFAGQRLDQALAELYSQFSRSRLQQWLNDGELLVDGKSVKANKKVLGGEFIQILK | -0.861
26 | HMLKPVVLLGARGLTDAVEKEVERALDEHGLIKIHVPSDDREERDEIYTTLADKLNAARIQAIGKMLVLW | -0.162
27 | HMDIFGREAEVEQILQEVRFGDDPHYRLSIGILPVTGHAGAGKTALVRFIFHHEVARAEFTVRMWVHV | 0.106
28 | HMSQSIGQEKALSIALADAGVQKENALGLEVKGEYDDGQLLYEVEFRAGGVEYEYEVRASDGRIVKAERD | 0.13
29 | HMYRSGGYTGAGKDDEEAGVVHRNEFVNTADAVRNPHVKRFLDVFNVAQKDGTIRMLNTSQILERARLDA | 0.123
30 | HMSEEVKSQPISILDLSTRASNGLKNEGIETIGELVKYSEDELLGLDKFGQNSLKEIKKKLEEIGLTLKEH | -0.0419
